± gives the standard deviation of the averaged measurements.
test system: Saccharomyces cerevisiae; experiment: protein stability index of tFT-peptide fusion (C-terminal peptide) (PSI (0-1 scale)); higher = more stable (slower turnover); conditions: genetic background: wild type; temperature: 30 C
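Note: PSI is a weighted mean of sequencing reads over stability bins, variants kept only with over 10 reads, mCherry proximal and sfGFP distal, peptide attached via GGGS linker.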

| Sequence | protein stability index |
| --- | --- |
| GGEGAAWAGGVG | 0.558 ± 0.028 |
| LGQRFRLFVSFF | 0.468 ± 0.077 |
| SPPLPPVLSRSH | 0.741 ± 0.043 |
| PPILLAYITPPM | 0.656 ± 0.0076 |
| SLPRPASYPPRF | 0.652 ± 0.079 |
| LSDSSDSTLGAI | 0.667 ± 0.029 |
| RWVGWGAWLSEV | 0.611 ± 0.02 |
| VPPHSLPPPTHP | 0.753 ± 0.048 |
| WAAGLRVCRSVL | 0.704 ± 0.052 |
| PPPNSPPRPPLS | 0.7035 ± 0.0046 |
| VVIRVKDEPFIM | 0.6781 ± 0.0067 |
| SPLPPPPSRPPR | 0.794 ± 0.032 |
| SFFFRSYCFPAP | 0.7169 ± 0.0037 |
| DLGPLFVSWSTW | 0.778 ± 0.021 |
| VSRRCVALRVGN | 0.579 ± 0.017 |
| VGEGWGAMIMQE | 0.737 ± 0.038 |
| ERARGKGAGKAE | 0.688 ± 0.019 |
| VTTQELRCRPEG | 0.636 ± 0.019 |
| SSPSYVPVSYSQ | 0.708 ± 0.066 |
| RRTTYKKVKRKK | 0.65 ± 0.062 |
| SVRLTYQNIIVN | 0.583 ± 0.02 |
| KNEESTKREGHF | 0.669 ± 0.063 |
| GAWCSTGENDTA | 0.677 ± 0.059 |
| GFRGILFPVGRS | 0.736 ± 0.03 |
| SSRRYSGLSFTS | 0.702 ± 0.015 |
| LPATLPPPPAPP | 0.705 ± 0.036 |

| Sequence | protein stability index |
| --- | --- |
| DKATGARGKPPR | 0.649 ± 0.13 |
| IKNEKKKKKNKK | 0.7 ± 0.035 |
| PLSPPPPPPPPL | 0.707 ± 0.018 |
| GCVDRSSHNALC | 0.632 ± 0.037 |
| ASPLSIPPLSPS | 0.633 ± 0.073 |
| WGGLGWVWVKLG | 0.685 ± 0.072 |
| KNADHPRKDEQP | 0.661 ± 0.095 |
| AISVCCFLCEFF | 0.509 ± 0.023 |
| DRRLGKHEYQPY | 0.737 ± 0.022 |
| SPALLAPPFSPS | 0.68455 ± 0.00067 |
| SKDFLLILDPAK | 0.662 ± 0.021 |
| GVGSWSCGGSVH | 0.6634 ± 0.0034 |
| WTLSGHKHIPED | 0.736 ± 0.013 |
| PHPRHQPNLRPT | 0.664 ± 0.024 |
| LNLWVVYRLLGV | 0.599 ± 0.038 |
| TTRACVTRGCSV | 0.623 ± 0.051 |
| RAGSLTSGVCGP | 0.663 ± 0.015 |
| ETKKKTNKRAEK | 0.689 ± 0.053 |
| LQAALVFPRSSL | 0.7225 ± 0.00052 |
| RGVGVRYGVARR | 0.6695 ± 0.006 |
| PLRPSSPLPPPL | 0.71 ± 0.021 |
| GRSAGGTGAPSR | 0.699 ± 0.022 |
| KKDFTTKSKEYR | 0.7125 ± 0.0026 |
| LVFLRDFFSLFS | 0.71 ± 0.017 |
| NKKKNLRYKHRI | 0.643 ± 0.1 |
| LFENNGIKCHKR | 0.683 ± 0.013 |

| Sequence | protein stability index |
| --- | --- |
| YRQIIPSFTLGL | 0.715 ± 0.036 |
| CCFPPLSPPASP | 0.656 ± 0.072 |
| PLSPPHRLTAAL | 0.756 ± 0.19 |
| LAPPPARLPLSP | 0.687 ± 0.009 |
| WIPITSDKCNFK | 0.709 ± 0.06 |
| MCPRFCPPLRSF | 0.686 ± 0.084 |
| PYGFNPSANGSS | 0.696 ± 0.068 |
| RRGHMTRFTHSR | 0.692 ± 0.077 |
| PSLPPPSPSTAP | 0.713 ± 0.03 |
| RVGRCYPSIVRS | 0.6522 ± 0.0042 |
| PPAPLPQSAPTR | 0.645 ± 0.038 |
| GVLCGVGLGFGV | 0.702 ± 0.044 |
| VSGICCRGVLLL | 0.6268 ± 0.00045 |
| QSLPLSAPAPAC | 0.697 ± 0.037 |
| PPPTPAPLLVPS | 0.598 ± 0.0091 |
| PTRRPDGQLHPS | 0.6707 ± 0.0027 |
| ERFRWRRNRSLG | 0.672 ± 0.16 |
| HPRPPAASSRTR | 0.707 ± 0.044 |
| PVWLLHIRPPIP | 0.681 ± 0.058 |
| AKNQSTGCKKKV | 0.684 ± 0.043 |
| GGWGTGTSGQGR | 0.715 ± 0.027 |
| HRSIDEGCSCCD | 0.627 ± 0.093 |
| ILPCSRYNILNV | 0.659 ± 0.0078 |
| GFGEFVLSSGWG | 0.743 ± 0.018 |
| GRRGRSASRIRA | 0.76 ± 0.14 |
| PVLSRLHSEVFL | 0.73 ± 0.081 |

| Sequence | protein stability index |
| --- | --- |
| PPDYPAPPPPPL | 0.695 ± 0.034 |
| RPGGSRTEGRRT | 0.683 ± 0.033 |
| FVLWFTSSGCSN | 0.7598 ± 0.0039 |
| WWGLGGREPGGS | 0.711 ± 0.072 |
| RSVSLIAVAPSA | 0.692 ± 0.017 |
| RVMPRVNDKKGI | 0.732 ± 0.092 |
| VLSSSPFLHFGC | 0.663 ± 0.072 |
| GWDFRERLGGSG | 0.71 ± 0.028 |
| RVWFWSGRGGEF | 0.709 ± 0.1 |
| LLRLTGRRHVGG | 0.748 ± 0.2 |
| PSGFLFPLSPPA | 0.698 ± 0.01 |
| VCRTLAPCIRWR | 0.633 ± 0.063 |
| SGEEVRSVARFF | 0.629 ± 0.035 |
| PFVIFHSCFSLV | 0.543 ± 0.011 |
| GVDAGGVFSRLC | 0.639 ± 0.018 |
| VTVCQTRGADSV | 0.579 ± 0.01 |
| PVIGLSMEKARG | 0.739 ± 0.1 |
| DVRSGRAVVGGW | 0.63 ± 0.051 |
| IERFKKMRGVGS | 0.801 ± 0.084 |
| STPLLLSPPLFC | 0.649 ± 0.04 |
| RRRTARVRTGQV | 0.647 ± 0.043 |
| YASLPQSRPLSP | 0.651 ± 0.013 |
| RYFISAHPGGIA | 0.66 ± 0.02 |
| ALRVAVIANMRV | 0.5724 ± 0.0057 |
| PGIVTGCGNTFV | 0.708 ± 0.022 |
| GWREPQHGARGP | 0.719 ± 0.022 |

| Sequence | protein stability index |
| --- | --- |
| HPFLPLFYHFPF | 0.733 ± 0.037 |
| IVFVLRPRRSRC | 0.65 ± 0.04 |
| NARPSPRSHSLE | 0.6921 ± 0.0065 |
| PLFLHSAHVSPI | 0.712 ± 0.071 |
| WGLIASGSIVIV | 0.548 ± 0.05 |
| LWGGGVGRVRGV | 0.658 ± 0.022 |
| GIRHSNLGQALE | 0.686 ± 0.11 |
| FFSRFCYGFGRM | 0.723 ± 0.066 |
| CTPVLLLRVLGN | 0.58 ± 0.036 |
| PPLRPRCSPAPR | 0.706 ± 0.01 |
| VVWRRVIGGLVM | 0.637 ± 0.031 |
| LGHQFKGTILRV | 0.73 ± 0.059 |
| NYLPLCCSMLAG | 0.588 ± 0.015 |
| SQLGRPSLHPVR | 0.6601 ± 0.0024 |
| RPSLSPLHVPPS | 0.748 ± 0.047 |
| RVVFHPFVQSLF | 0.62 ± 0.028 |
| MLYFSGLQVTIL | 0.622 ± 0.0075 |
| VIGSKQERRAEK | 0.6905 ± 0.0016 |
| LKPKLDFHIWDV | 0.67 ± 0.1 |
| ADCRSRPMREGS | 0.665 ± 0.036 |
| IQFKDKAVSETE | 0.658 ± 0.021 |
| QIQRLGGGGHCG | 0.762 ± 0.1 |
| QPRLLGPDRIDL | 0.662 ± 0.036 |
| LFSLPPPSPPPR | 0.694 ± 0.03 |
| GVFGLMVGWGWG | 0.671 ± 0.053 |
| CYRWVLGVDARV | 0.649 ± 0.012 |

| Sequence | protein stability index |
| --- | --- |
| SWGGGGGGAGRG | 0.653 ± 0.017 |
| PATRHSRLPPAS | 0.67 ± 0.018 |
| PPLPSFILSPRA | 0.705 ± 0.027 |
| PSQPLPPSRHRP | 0.616 ± 0.037 |
| LFPLPHPLPVSL | 0.6146 ± 0.0053 |
| GLPPPPQPLPHA | 0.726 ± 0.14 |
| GIWVMVSVCSIA | 0.537 ± 0.082 |
| TSPPPPSRPPSH | 0.691 ± 0.029 |
| SPSPPPRTPPPL | 0.689 ± 0.022 |
| SWPMLSVLADER | 0.717 ± 0.04 |
| NGRENVHEWQRG | 0.711 ± 0.018 |
| KTNLGNTKVKKK | 0.613 ± 0.025 |
| AAGPGRWRWRGA | 0.643 ± 0.0093 |
| RASAHLVAIVRY | 0.642 ± 0.02 |
| GITAWMAHPRSV | 0.706 ± 0.012 |
| VLLEGCQSYVIW | 0.652 ± 0.03 |
| IWLAFCTLRPVS | 0.591 ± 0.027 |
| HSPPSPHFPHHH | 0.6609 ± 0.0043 |
| VTLSYDTKWLWL | 0.665 ± 0.07 |
| YSLETGIFVFHR | 0.7027 ± 0.0068 |
| RFGHLLRFSWLL | 0.6477 ± 0.0057 |
| SPSSLPPTLPTL | 0.711 ± 0.021 |
| PLPPHAPPNSAP | 0.656 ± 0.079 |
| THYKLFGSLNLL | 0.634 ± 0.035 |
| FVSWNLPLAFAF | 0.499 ± 0.017 |
| AVNADMHDKKIA | 0.7 ± 0.036 |

| Sequence | protein stability index |
| --- | --- |
| LPSPYPMPPPLP | 0.736 ± 0.018 |
| LKQKMKETGRRR | 0.666 ± 0.058 |
| FVILTPFYLTFH | 0.51 ± 0.033 |
| CPPRPLHSPLPP | 0.694 ± 0.022 |
| SVLSVAIRAPTQ | 0.691 ± 0.093 |
| LCPRIAIVHPPS | 0.606 ± 0.027 |
| RLPLRVTGIPVD | 0.6668 ± 0.0016 |
| GGGVLTWLGENC | 0.702 ± 0.0082 |
| ENANWHSKNMSK | 0.723 ± 0.071 |
| VCAFGFPAASRV | 0.6627 ± 0.0046 |
| EYAVDAERLRTT | 0.72 ± 0.053 |
| GRGEDLVRRHTP | 0.668 ± 0.032 |
| RGGGRGGRPRMC | 0.607 ± 0.085 |
| TDFRSGLIFIIV | 0.544 ± 0.045 |
| VRVRSLEGWGMG | 0.6687 ± 0.0048 |
| RESSAYPPPGEG | 0.6551 ± 0.005 |
| VTPPTPPSRASP | 0.667 ± 0.02 |
| HSPHSQYLLRID | 0.72 ± 0.033 |
| VVRLGSNYYGGT | 0.756 ± 0.004 |
| TGCRAVPDLNAD | 0.695 ± 0.018 |
| YLSVPVGPAMAL | 0.643 ± 0.1 |
| SPRRVAVAGETS | 0.68 ± 0.093 |
| SGSGVGVVVSEV | 0.666 ± 0.049 |
| DIGSSGRVGGLG | 0.712 ± 0.031 |
| RIRGPECDLWFR | 0.707 ± 0.019 |
| PRSPLSIFPSSL | 0.692 ± 0.13 |

| Sequence | protein stability index |
| --- | --- |
| PLLSAFPPRPFP | 0.682 ± 0.12 |
| LPFPLGDSRGSC | 0.697 ± 0.011 |
| GHNTPRRVMSRC | 0.689 ± 0.037 |
| DGRRRHCYTITA | 0.661 ± 0.031 |
| PYEPTIALPLLL | 0.683 ± 0.058 |
| QVVIGRLSSQVG | 0.664 ± 0.038 |
| NLAGLVREYSGY | 0.684 ± 0.011 |
| PPPLTPPTCLPP | 0.644 ± 0.013 |
| PPPPPHTSPSPT | 0.744 ± 0.042 |
| KNKEISQIYIKN | 0.662 ± 0.027 |
| LPPAPPLPPPPT | 0.683 ± 0.044 |
| PTHALLGCTCAN | 0.681 ± 0.024 |
| YRIMRRKEKEER | 0.669 ± 0.026 |
| PLESRPHNAHQR | 0.663 ± 0.09 |
| ALAPSAFSSSPL | 0.6645 ± 0.0022 |
| AHGRFTISLAGL | 0.743 ± 0.057 |
| NKKKKKKRKRVK | 0.701 ± 0.049 |
| GDDRGTSKCCLT | 0.702 ± 0.068 |
| REGGEIGDQEGT | 0.674 ± 0.069 |
| RTAVFLTRRYGT | 0.673 ± 0.02 |
